Data: patent publication US20240317847A1 (Bayer, published 2024)

B1: TPP-29528 (antibody, mouse IgG1)
heavy: EVQLLESGGGLVQPGGSLRLSCAASGFTFSSYGMHWVRQAPGKGLEWVAVISYDGSYKYYADSVKGRFTISRDNSKNTLYLQMNSLRAEDTAVYYCAAGVPDYWGQGTLVTVSSAKTTPPSVYPLAPGSAAQTNSMVTLGCLVKGYFPEPVTVTWNSGSLSSGVHTFPAVLQSDLYTLSSSVTVPSSTWPSETVTCNVAHPASSTKVDKKIVPRDCGCKPCICTVPEVSSVFIFPPKPKDVLTITLTPKVTCVVVDISKDDPEVQFSWFVDDVEVHTAQTQPREEQFNSTFRSVSELPIMHQDWLNGKEFKCRVNSAAFPAPIEKTISKTKGRPKAPQVYTIPPPKEQMAKDKVSLTCMITDFFPEDITVEWQWNGQPAENYKNTQPIMDTDGSYFVYSKLNVQKSNWEAGNTFTCSVLHEGLHNHHTEKSLSHSPGK
light: QSVLTQPPSASGTPGQRVTISCSGSSSNIGSDYDVHWYQQLPGTAPKLLIYSNEERPSGVPDRFSGSKSGTSASLAISGLRSEDEADYYCSAWDSSLSGPVFGGGTKLTVLGQPKSSPSVTLFPPSSEELETNKATLVCTITDFYPGVVTVDWKVDGTPVTQGMETTQPSKQSNNKYMASSYLTLTARAWERHSSYSCQVTHEGHTVEKSLSRADCS
notes: mIgG1, Lambda
B2: TPP-29523 (antibody, mouse IgG1)
heavy: QVQLVESGGGVVQPGRSLRLSCAASGFTFSHYDMHWVRQAPGKGLEWVAVISYEGSVKFYADSVKGRFTISRDNSKNTLYLQMNSLRAEDTAVYYCARTPGFHFDYWGQGTLVTVSSAKTTPPSVYPLAPGSAAQTNSMVTLGCLVKGYFPEPVTVTWNSGSLSSGVHTFPAVLQSDLYTLSSSVTVPSSTWPSETVTCNVAHPASSTKVDKKIVPRDCGCKPCICTVPEVSSVFIFPPKPKDVLTITLTPKVTCVVVDISKDDPEVQFSWFVDDVEVHTAQTQPREEQFNSTFRSVSELPIMHQDWLNGKEFKCRVNSAAFPAPIEKTISKTKGRPKAPQVYTIPPPKEQMAKDKVSLTCMITDFFPEDITVEWQWNGQPAENYKNTQPIMDTDGSYFVYSKLNVQKSNWEAGNTFTCSVLHEGLHNHHTEKSLSHSPGK
light: QSVLTQPPSASGTPGQRVTISCSGSSSNIGSNYVNWYQQLPGTAPKLLIYYDDLRPSGVPDRFSGSKSGTSASLAISGLRSEDEADYYCSAWDDSLSGVVFGGGTKLTVLGQPKSSPSVTLFPPSSEELETNKATLVCTITDFYPGVVTVDWKVDGTPVTQGMETTQPSKQSNNKYMASSYLTLTARAWERHSSYSCQVTHEGHTVEKSLSRADCS
notes: mIgG1, Lambda
B3: TPP-29519 (antibody, mouse IgG1)
heavy: QVQLVESGGGVVQPGRSLRLSCAASGFTFSHYDMHWVRQAPGKGLEWVAVISYHGSVKFYADSVKGRFTISRDNSKNTLYLQMNSLRAEDTAVYYCARTPGFHFDYWGQGTLVTVSSAKTTPPSVYPLAPGSAAQTNSMVTLGCLVKGYFPEPVTVTWNSGSLSSGVHTFPAVLQSDLYTLSSSVTVPSSTWPSETVTCNVAHPASSTKVDKKIVPRDCGCKPCICTVPEVSSVFIFPPKPKDVLTITLTPKVTCVVVDISKDDPEVQFSWFVDDVEVHTAQTQPREEQFNSTFRSVSELPIMHQDWLNGKEFKCRVNSAAFPAPIEKTISKTKGRPKAPQVYTIPPPKEQMAKDKVSLTCMITDFFPEDITVEWQWNGQPAENYKNTQPIMDTDGSYFVYSKLNVQKSNWEAGNTFTCSVLHEGLHNHHTEKSLSHSPGK
light: QSVLTQPPSASGTPGQRVTISCSGSSSNIGSNYVSWYQQLPGTAPKLLIYYDDLRPSGVPDRFSGSKSGTSASLAISGLRSEDEADYYCSAWDDSLSGVVFGGGTKLTVLGQPKSSPSVTLFPPSSEELETNKATLVCTITDFYPGVVTVDWKVDGTPVTQGMETTQPSKQSNNKYMASSYLTLTARAWERHSSYSCQVTHEGHTVEKSLSRADCS
notes: mIgG1, Lambda

Tests used:
murine IL-11 [1] = target: T1, murine IL-11 (mouse, UniProt P47873 22-199); experiment: cell-based or functional assay
T1 sequence: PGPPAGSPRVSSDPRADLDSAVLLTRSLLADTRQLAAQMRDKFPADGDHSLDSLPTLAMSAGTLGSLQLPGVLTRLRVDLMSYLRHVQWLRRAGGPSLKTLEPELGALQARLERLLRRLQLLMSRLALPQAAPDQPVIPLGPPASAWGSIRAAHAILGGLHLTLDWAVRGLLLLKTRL

rat IL-11 [2] = target: T2, rat IL-11 (rat, UniProt Q99MF5 22-199); experiment: cell-based or functional assay
T2 sequence: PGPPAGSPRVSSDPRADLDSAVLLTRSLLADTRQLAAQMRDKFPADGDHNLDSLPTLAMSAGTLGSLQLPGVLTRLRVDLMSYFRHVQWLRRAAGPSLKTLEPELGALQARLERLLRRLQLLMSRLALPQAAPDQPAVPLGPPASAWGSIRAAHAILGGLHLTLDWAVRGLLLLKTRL

human IL-11 [3] = target: T3, human IL-11 (human, UniProt P20809 22-199); experiment: cell-based or functional assay
T3 sequence: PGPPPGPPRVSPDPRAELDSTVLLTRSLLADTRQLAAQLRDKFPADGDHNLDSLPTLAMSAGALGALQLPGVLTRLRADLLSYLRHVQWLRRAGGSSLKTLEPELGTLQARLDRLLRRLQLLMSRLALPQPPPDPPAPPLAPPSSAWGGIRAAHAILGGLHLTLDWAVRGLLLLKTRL

cynomolgus IL-11 [4] = target: T4, cynomolgus IL-11 (cynomolgus, UniProt P20808 22-199); experiment: cell-based or functional assay
T4 sequence: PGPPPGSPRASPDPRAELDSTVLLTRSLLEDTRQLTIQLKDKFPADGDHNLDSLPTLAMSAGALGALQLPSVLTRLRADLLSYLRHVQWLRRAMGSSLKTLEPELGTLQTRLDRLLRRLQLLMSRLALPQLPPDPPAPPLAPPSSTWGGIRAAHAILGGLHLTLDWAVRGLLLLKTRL

murine IL-11 [5] = target: T1, murine IL-11; experiment: SPR 37 C, antibody captured, IL-11 as analyte
Procedure: (§1) To assess the binding kinetics and affinity of anti-IL-11 antibodies as well as their species cross-reactivity profile, binding assays were conducted using surface plasmon resonance (SPR). Binding assays were performed on a Biacore T200 instrument or on a Biacore 8K+ instrument (Cytiva) at 37° C. using assay buffer HBS EP+, 300 mM NaCl, 1 mg/ml BSA, 0.05% NaN3. Antibodies were captured either via anti-human Fc IgGs (“Human antibody capture kit”, Order No. BR100839, Cytiva) or via anti-mouse Fc IgGs (“Mouse antibody capture kit, Order No. BR100383, Cytiva) covalently amine coupled to a Series S CM5 sensor chip (Cytiva) depending on the isotype. The amine coupling was carried out according to the manufacturer's instructions using 1-ethyl-3-(3-dimethylaminopropyl) carbodiimide hydrochloride (EDC), N-hydroxysuccinimide (NHS) and ethanolamine HCl, pH 8.5 (“Amine Coupling Kit” BR-1000-50, Cytiva.). Human, mouse, cynomolgus or rat IL-11 was used as analyte at several dilutions within the concentration range from 0.05-200 nM. For binding assays with only one concentration 200 nM IL-11 was used. The sensor surface was regenerated with glycine pH 1.7 after each antigen injection. Obtained sensorgrams were double referenced (subtraction of reference flow cell signal and buffer injection) and were fitted to a 1:1 Langmuir binding model to derive kinetic data using the Biacore T200 Evaluation software or the Biacore Insight software. If no value is reported, there was either no binding or very low binding and multiphasic binding behavior. Values below 1E-12 were considered to be below the dynamic range of the instrument and set to <1E-12.

rat IL-11 [6] = target: T2, rat IL-11; experiment: SPR 37 C, antibody captured, IL-11 as analyte
Procedure: as §1

human IL-11 [7] = target: T3, human IL-11; experiment: SPR 37 C, antibody captured, IL-11 as analyte
Procedure: as §1

cynomolgus IL-11 [8] = target: T4, cynomolgus IL-11; experiment: SPR 37 C, antibody captured, IL-11 as analyte
Procedure: as §1

murine IL-11 [9] = target: T1, murine IL-11; experiment: Di-complex ELISA, competitor canine IL11RA-Fc on coated IL-11;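 as to Efficacy (%): signal drop relative to signal at lowest antibody concentration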
Procedure: (§2) The assay is performed using streptavidin coated microtiter plates (Greiner bio-one, #781997). In a first step, 10 nM biotinylated mouse IL-11 (Invigate, Germany, e.g., lot #C210819-09) or human IL-11 (Invigate, Germany, e.g., lot #C121021-19) is coated in 25 μl PBS on the plate at 4° C. overnight. Next day, the plate is washed three times with 50 μl PBST and then blocked with 50 μl SmartBlock (Candor, #113125) for one hour at room temperature (RT). After additional three washes with PBST, 25 μl of a mixture of the murine anti IL-11 antibody and recombinant canine IL11RA-Fc fusion protein (Sino Biological, #70078-D02H) in PBS-T, 10% Smartblock are added simultaneously to the plate and incubated for one hour at RT. […] After three additional washes with PBS-T, 25 μl anti-human-POD (Sigma, #A0170) in PBS-T, 10% Smartblock is added and incubated for 1 hour at RT. After a final three washes with PBS-T, 25 μl AmplexRed (Fisher Scientific, A12222), 1/1000 in PBS, 0,003% H₂O₂, is added as substrate and incubated for 15 min at RT in the dark. Then, the fluorescence is measured with a plate reader at 535/595 nm. Signals from dose responses were used to calculate IC50 values (GraphPad Prism). Efficacy was calculated as [(signal measured at lowest antibody concentration−signal measured at the highest antibody concentration)×100] divided by (signal measured at lowest antibody concentration−signal measured in the absence of IL11Ra).
(§3) IgG converted antibodies were subjected to the experimental assay procedure described in Example 18.

human IL-11 [10] = target: T3, human IL-11; experiment: as above
Procedure: as §2, §3

Binder	RGA Efficacy (%) (murine IL-11 [1])	RGA IC50 (murine IL-11 [1])	RGA Efficacy (%) (rat IL-11 [2])	RGA IC50 (rat IL-11 [2])	RGA Efficacy (%) (human IL-11 [3])	RGA Efficacy (%) (cynomolgus IL-11 [4])	RGA IC50 (cynomolgus IL-11 [4])	Kd (murine IL-11 [5])	Kd (rat IL-11 [6])	Kd (human IL-11 [7])	Kd (cynomolgus IL-11 [8])	Efficacy (%) (murine IL-11 [9])	IC50 (murine IL-11 [9])	Efficacy (%) (human IL-11 [10])	RGA IC50 (human IL-11 [3])
B1	96.9%	890 pM	89.9%	1800 pM	81.2%	87.8%	440 pM	230 pM	330 pM	340 pM	200 pM	43.4%	2600 pM	36.3%	–
B2	101%	1400 pM	101%	1400 pM	100%	97.2%	680 pM	4 pM	20 pM	2.6 pM	1100 pM	4.8%	–	2%	1600 pM
B3	101%	1200 pM	99.7%	1000 pM	100%	99.2%	890 pM	3.5 pM	23 pM	10 pM	610 pM	12.8%	–	6.8%	1800 pM
